In one test the target is T1, mouse BCMA (mouse, UniProt O88472 1-49, limits assumed).
T1 construct: also called murine BCMA
T1 chain (looked up): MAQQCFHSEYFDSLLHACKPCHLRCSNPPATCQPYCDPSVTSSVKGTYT
Briefly: not described (statement within Example 5).

The target in test [1] is T2, biotinylated recombinant human BCMA (Acro Biosystems Cat: #BC7-H82F0) (human, UniProt Q02223 1-54, biotinylated).
T2 construct: Bought reagent; Detected with fluorescent streptavidin
T2 sequence (looked up): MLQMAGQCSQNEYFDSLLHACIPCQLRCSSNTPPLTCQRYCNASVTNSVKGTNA
Briefly: flow cytometry; CTX120 cells stained with biotinylated BCMA and fluorescent streptavidin. The protocol:
The resultant genetically engineered T cells were characterized for incorporation of the desired gene edits: loss of TCR, loss of MHC I expression, and expression of an anti-BCMA CAR. Approximately one week after gene-editing, allogeneic T cells were assessed for surface expression of TCR, β2M, and anti-BCMA CAR using flow cytometry. The allogeneic cells were stained with biotinylated recombinant human BCMA (Acro Biosystems Cat: #BC7-H82F0) and tagged with fluorescent streptavidin and with fluorescent antibodies targeting cell surface markers. The percentage of cells that were TCR⁻, β2M⁻, and anti-BCMA CAR⁺ was determined. Nine lots of CTX120 cells were prepared from eight healthy donors.
A general note: In flow cytometry, cells or beads pass a laser one at a time.

B1: anti-BCMA CAR (CTX-166b) expressed on CTX120 cells (other)
chain: QVQLVQSGAELKKPGASVKVSCKASGNTLTNYVIHWVRQAPGQRLEWMGYILPYNDLTKYSQKFQGRVTITRDKSASTAYMELSSLRSEDTAVYYCTRWDWDGFFDPWGQGTTVTVSSGGGGSGGGGSGGGGSEIVMTQSPATLSVSPGERASISCRASQSLVHSNGNTHLHWYQQRPGQAPRLLIYSVSNRFSEVPARFSGSGSGTDFTLTISSVESEDFAVYYCSQTSHIPYTFGGGTKLEIKSAAAFVPVFLPAKPTTTPAPRPPTPAPTIASQPLSLRPEACRPAAGGAVHTRGLDFACDIYIWAPLAGTCGVLLLSLVITLYCNHRNRKRGRKKLLYIFKQPFMRPVQTTQEEDGCSCRFPEEEEGGCELRVKFSRSADAPAYQQGQNQLYNELNLGRREEYDVLDKRRGRDPEMGGKPRRKNPQEGLYNELQKDKMAEAYSEIGMKGERRRGKGHDGLYQGLSTATKDTYDALHMQALPPR
notes: TRAC and B2M disrupted; also called CTX120 anti-BCMA CAR
For the molecule B1, the binding result with mouse BCMA was “no binding”; in test [1], “binds”.

Values taken from patent US20230220059A1 (CRISPR THERAPEUTICS, published 2023).
